This is an account of results in US20180195054A1 (Stanford University, published 2018).

In assay [1] the target is human CD47 on the surface of cancer cells (Raji, Jurkat, DLD-1) (human) (UniProt Q08722). Description: flow cytometry on Raji cells, competition with 100 nM Alexa Fluor 647 WT SIRPα tetramer. A general note: A flow cytometer gives signals particle by particle.
Assay [2] shares this target. Nature of the assay: flow cytometry on Jurkat cells, competition with Alexa Fluor 647 wild-type SIRPα tetramer (50 nM per paragraph 133).
Assay [3] concerns the target biotinylated CD47 IgSF domain (human CD47 residues 19-135 / residues 1-117, C15G) (human) (UniProt Q08722). Nature of the assay: SPR (Biacore T100, 25 C), biotinylated CD47 captured on SA chip, SIRPα variant in solution, 1:1 Langmuir model.
Assay [4] deals with T1, human CD47 on the surface of cancer cells (Raji, Jurkat, DLD-1) (human, UniProt Q08722 19-323).
T1 construct: whole, on cells; also called cell-surface CD47; CD47 on cancer cells
Nature of the assay: flow cytometry on Jurkat cells, competition with Alexa Fluor 647 wild-type SIRPα tetramer (50 nM per paragraph 133). The protocol: (§1) GFP+ Jurkat cells were washed in PBS then incubated with titrating concentrations of biotinylated SIRPα variants for 30 minutes on ice. Wild-type SIRPα tetramer was pre-formed by incubating a 4:1 molar ratio of biotinylated wild-type SIRPα with streptavidin for 15 minutes on ice. […] Cells were washed twice then analyzed for SIRPα variant binding by flow cytometry using an Accuri C6 flow cytometer. To assess blocking of wild-type SIRPα to cD47, 50 nM wild-type SIRPα tetramer was incubated with titrating concentrations of CD47 blocking agents for 30 minutes on ice. Anti-CD47 clone B6H12 (eBioscience) was used as a positive control for blocking. Data were analyzed using GraphPad Prism 5. Maximal SIRPα variant binding represents the percentage of the maximal mean fluorescence intensity measured for each variant.

The target of assay [5] is T1, human CD47 on the surface of cancer …. Description: flow cytometry on DLD-1 cells, detection with goat anti-human IgG. The protocol:
Varying concentrations of biotinylated SIRPα monomers, SIRPα-hlgG4 fusion proteins, or anti-CD47 antibodies were incubated with cancer cells as indicated. […] Binding of SIRPα-hlgG4 fusion proteins or anti-CD47 antibodies was detected with goat anti-human IgG antibody (Invitrogen) and was analyzed on an LSRFortessa with high-throughput sampler (BD Biosciences). Data represent the mean fluorescence intensity normalized to maximal binding for each class of reagents, and points were fit to sigmoidal dose-response curves using Prism 5 (Graphpad).

Assay [6] addresses T2, mouse CD47 on mouse cells (CT26 colon cancer cells; mouse blood cells) (mouse, UniProt Q61735 19-303).
T2 construct: whole, on cells
T2 sequence (looked up): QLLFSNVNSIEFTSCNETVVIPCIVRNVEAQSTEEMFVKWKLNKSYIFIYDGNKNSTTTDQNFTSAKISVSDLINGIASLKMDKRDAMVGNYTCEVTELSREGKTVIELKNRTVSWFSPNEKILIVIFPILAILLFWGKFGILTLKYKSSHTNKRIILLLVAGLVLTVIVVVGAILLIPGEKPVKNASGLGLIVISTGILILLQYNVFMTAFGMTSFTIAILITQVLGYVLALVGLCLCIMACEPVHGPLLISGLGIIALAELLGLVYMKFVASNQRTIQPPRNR
Description: flow cytometry on mouse CT26 colon cancer cells.

Assay [7] addresses T1, human CD47 on the surface of cancer …. Description: flow cytometry on Jurkat cells, biotinylated SIRPα variant detected with Alexa Fluor 647 streptavidin. As for the experimental part:
as §1

In assay [8] the target is T3, biotinylated CD47 IgSF domain (human CD47 residues 19-135 / residues 1-117, C15G) (human, UniProt Q08722 19-135, biotinylated with BirA ligase at the C-terminal biotin acceptor peptide tag).
T3 construct: range 19-135; Captured on a Biacore SA chip for SPR; C15G is counted on the mature domain (1-117), not on the precursor; also called immobilized CD47
Description: SPR (Biacore T100, 25 C), biotinylated CD47 captured on SA chip, SIRPα variant in solution, 1:1 Langmuir model. The protocol:
SPR experiments were conducted on a Biacore T100 instrument at 25° C. Experiments used a Biacore SA sensor chip (GE Healthcare) to capture biotinylated CD47 at a surface density of approximately 150 RU. An unrelated biotinylated protein was immobilized as a reference surface for the SA sensor chip with matching RU to the experimental surface. Serial dilutions of unbiotinylated SIRPα variants in the running buffer [1×HBS-P (GE Healthcare)] were flowed over the chip at a rate of 50 μL/min. CD47 was regenerated using three 30 second injections of 2M MgCl₂. Data was analyzed using the Biacore T100 evaluation software version 2.0 with a 1:1 Langmuir binding model.
Experiments were conducted with a Biacore T100 at 25° C. Protein concentrations were quantified by 280 nm absorbance with a Nanodrop2000 spectrometer (Thermo Scientific). A Biacore SA sensor chip (GE Healthcare) was used to capture biotinylated CD47 (Rₘₐₓ ˜150 RU). An unrelated biotinylated protein was immobilized with an RU value matching that of the […] to control for nonspecific binding. Measurements were made with serial dilutions of the SIRPα variants in HBS-P+ buffer (GE Healthcare). The CD47 surface was regenerated by three 60 second injections of 2 M MgCl₂. All data were analyzed with the Biacore T100 evaluation software version 2.0 with a 1:1 Langmuir binding model.

The target of assay [9] is T4, mouse CD47 displayed on the surface of yeast (mouse, UniProt Q61735 19-133, limits assumed).
T4 sequence (looked up): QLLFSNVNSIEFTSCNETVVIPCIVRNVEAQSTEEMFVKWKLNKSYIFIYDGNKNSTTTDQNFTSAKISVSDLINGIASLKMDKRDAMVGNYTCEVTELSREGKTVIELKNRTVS
Nature of the assay: flow cytometry on yeast displaying mouse CD47.

In assay [10] the target is T1, human CD47 on the surface of cancer …. Description: flow cytometry on Raji cells, competition with 100 nM Alexa Fluor 647 WT SIRPα tetramer.

For orientation: Kd means a measure of binding affinity in units of concentration. Low values mean higher affinity, high ones lower affinity. A word on the EC50 (read off the curve): it is the concentration giving half of the maximal effect. A higher EC50 (read off the curve) goes with a less potent agent.

Turning to “Fab fragments of anti-CD47 antibody clone B6H12”, the IC50 (read off the curve) in assay [1] is 100 nM.

Turning to Anti-CD47 (B6H12) (antibody), in assay [2], the IC50 (read off the curve) amounted to 80 nM.

On to “WT allele 2 (from UniProt P78324) (receptor)”, for which the dissociation constant (Kd) in [3] is 452 nM.

B1: FD6-hIgG4 (FD6 d1 domain fused to hinge, CH2 and CH3 of human IgG4) (Fc fusion)
chain: EEEVQIIQPDKSVSVAAGESAILHCTITSLFPVGPIQWFRGAGPARVLIYNQRQGPFPRVTTISETTRRENMDFSISISNITPADAGTYYCIKFRKGSPDTEFKSGAGTELSVRAKPSAAAPPCPPCPAPEFLGGPSVFLFPPKPKDTLMISRTPEVTCVVVDVSQEDPEVQFNWYVDGVEVHNAKTKPREEQFNSTYRVVSVLTVLHQDWLNGKEYKCKVSNKGLPSSIEKTISKAKGQPREPQVYTLPPSQEEMTKNQVSLTCLVKGFYPSDIAVEWESNGQPENNYKTTPPVLDSDGSFFLYSRLTVDKSRWQEGNVFSCSVMHEALHNHYTQKSLSLSPGK
notes: also called FD6-hlgG4; FD-hlgG4
Consider B1, for which the “IC50 (read off the curve)” value in assay [4] is around 2 nM. In [5], the “EC50 (read off the curve)” value is around 5 nM.

B2: biotinylated FD6 monomer (designed binder)
chain: EEEVQIIQPDKSVSVAAGESAILHCTITSLFPVGPIQWFRGAGPARVLIYNQRQGPFPRVTTISETTRRENMDFSISISNITPADAGTYYCIKFRKGSPDTEFKSGAGTELSVRAKPSGLNDIFEAQKIEWHEHHHHHHHH
modifications: biotinylated at the C-terminal biotin acceptor peptide tag
With B2, the concentration giving a half-maximal response (EC50 (read off the curve)) in assay [6] is around 300 nM.

B3: biotinylated high-affinity SIRPα variant FA4 monomer (designed binder)
chain: EEELQIIQPDKSVSVAAGESAILHCTITSLTPVGPIQWFRGAGPARVLIYNQRQGPFPRVTTVSEGTRRENMDFSISISNITPADAGTYYCIKFRKGSPDTEVKSGAGTELSVRAKPSGLNDIFEAQKIEWHEHHHHHHHH
modifications: biotinylated at the C-terminal biotin acceptor peptide tag
Turning to B3, in assay [7], the binding result is “binds”.

B4: high-affinity SIRPα variant CV1 monomer (consensus variant 1, d1 domain) (designed binder)
chain: EEELQIIQPDKSVLVAAGETATLRCTITSLFPVGPIQWFRGAGPGRVLIYNQRQGPFPRVTTVSDTTKRNNMDFSIRIGNITPADAGTYYCIKFRKGSPDDVEFKSGAGTELSVRAKPSHHHHHHHH
notes: Nine consensus substitutions grafted onto wild-type SIRPα allele 2
For the molecule B4, the equilibrium dissociation constant (Kd) in assay [8] is 0.0111 nM. In [9], the “EC50 (read off the curve)” value is around 20 nM. Moreover, in assay [10], the “IC50 (read off the curve)” value is around 0.8 nM.

B5: first generation SIRPα mutant 1A5 monomer (designed binder)
chain: EEEVQVIQPDKSVSVAAGESAILHCTLTSLIPVGPIQWFRGAGPARVLIYNQRQGHFPRVTTVSEGTRRENMDFSISISNITPADAGTYYCIKFRKGSPDTEFKSGAGTELSVRAKPSHHHHHHHH
B5: the dissociation constant Kd in [8] came to 3.6 nM. Besides, the “IC50 (read off the curve)” value in [4] was around 80 nM.

B6: high-affinity SIRPα variant FD6 monomer (d1 domain) (designed binder)
chain: EEEVQIIQPDKSVSVAAGESAILHCTITSLFPVGPIQWFRGAGPARVLIYNQRQGPFPRVTTISETTRRENMDFSISISNITPADAGTYYCIKFRKGSPDTEFKSGAGTELSVRAKPSHHHHHHHH
notes: Second generation variant of human SIRPα allele 1 d1
For the molecule B6, the Kd in [8] stood at 0.0413 nM. Further, the “IC50 (read off the curve)” value was around 3 nM in [4] and around 2 nM in [10].

B7: FA4 (designed binder)
SIRPα d1 domain variant: EEELQIIQPDKSVSVAAGESAILHCTITSLTPVGPIQWFRGAGPARVLIYNQRQGPFPRVTTVSEGTRRENMDFSISISNITPADAGTYYCIKFRKGSPDTEVKSGAGTELSVRAKPS
notes: also called FA4 mutant d1 domain; FA4 monomer (unbiotinylated, SPR analyte)
The molecule B7 registered a dissociation constant Kd in [8] of 0.034 nM.

B8: 2A10 (designed binder)
SIRPα d1 domain variant: EEELQIIQPDKSVSVAAGESAILHCTITSLSPVGPIQWFRGAGPARVLIYNQRQGPFPRVTTVSEGTKRENMDFSISISNITPADAGTYYCIKLRKGSPDTEFKSGAGTELSVRAKPS
notes: also called 2A10 mutant d1 domain
For B8, the Kd in assay [8] is 0.5 nM.

B9: FB3 (designed binder)
SIRPα d1 domain variant: EEELQIIQPDKSVSVAAGESAILHCTITSLFPVGPIQWFRGAGPARLLIYNQRQGPFPRVTTVSETTKRENMDFSISISNITPADAGTYYCVKFRKGSPDTEFKSGAGTELSVRAKPS
notes: also called FB3 mutant d1 domain
In [8], B9 displayed a dissociation constant (Kd) of 0.0699 nM.

B10: 2A2 (designed binder)
SIRPα d1 domain variant: EEEVQIIQPDKSVSVAAGESIILHCTVTSLFPVGPIQWFRGAGPARVLIYNQREGRFPRVTTVSEGTRRENMDFSISISNITPADAGTYYCIKLRKGSPDTEFKSGAGTELSVRAKPS
notes: also called 2A2 mutant d1 domain
B10 showed a Kd in assay [8] of 0.402 nM.

B11: 2B5 (designed binder)
SIRPα d1 domain variant: EEEIQVIQPDKSVSVAAGESVIIHCTVTSLFPVGPIQWFRGAGPARVLIYNQRQGRFPRVTTVSEGTKRENMDFSISISNITPADAGTYYCVKVRKGSPDTEVKSGAGTELSVRAKPS
notes: also called 2B5 mutant d1 domain
B11 came in with a Kd in assay [8] of 0.423 nM.

B12: 2D3 (designed binder)
SIRPα d1 domain variant: EEEVQIIQPDKSVSVAAGESVILHCTITSLTPVGPIQWFRGAGPARLLIYNQREGPFPRVTTVSETTRRENMDFSISISNITPADAGTYYCVKLRKGSPDTEFKSGAGTELSVRAKPS
notes: also called 2D3 mutant d1 domain
As for B12, in assay [8], the affinity, expressed as Kd, was 0.847 nM.

B13: 1D4 (designed binder)
SIRPα d1 domain variant: EEELQVIQPDKSVSVAAGESAILHCTITSLIPVGPIQWFRGAGPARELIYNQREGHFPRVTTVSETTRRENMDFSISISNITPADAGTYYCVKFRKGSPDTEVKSGAGTELSVRAKPS
notes: First generation variant, unbiotinylated monomer in SPR; also called 1D4 mutant d1 domain
In turn, B13 gave a Kd in [8] of 11.6 nM.

B14: 2F5 (designed binder)
SIRPα d1 domain variant: EEEVQLIQPDKSVSVAAGESAILHCTVTSLFPVGPIQWFRGAGPARVLIYNQREGPFPRVTTVSEGTKRENMDFSISISNITPADAGTYYCIKFRKGSPDTEVKSGAGTELSVRAKPS
notes: also called 2F5 mutant d1 domain
Regarding B14, binding in [8] was characterised by a dissociation constant (Kd) of 0.276 nM.

B15: CV1-hIgG4 (CV1 d1 domain fused to hinge, CH2 and CH3 of human IgG4 S228P) (Fc fusion)
chain: EEELQIIQPDKSVLVAAGETATLRCTITSLFPVGPIQWFRGAGPGRVLIYNQRQGPFPRVTTVSDTTKRNNMDFSIRIGNITPADAGTYYCIKFRKGSPDDVEFKSGAGTELSVRAKPSAAAPPCPPCPAPEFLGGPSVFLFPPKPKDTLMISRTPEVTCVVVDVSQEDPEVQFNWYVDGVEVHNAKTKPREEQFNSTYRVVSVLTVLHQDWLNGKEYKCKVSNKGLPSSIEKTISKAKGQPREPQVYTLPPSQEEMTKNQVSLTCLVKGFYPSDIAVEWESNGQPENNYKTTPPVLDSDGSFFLYSRLTVDKSRWQEGNVFSCSVMHEALHNHYTQKSLSLSPGK
notes: also called CV1-hlgG4
Regarding B15, the “EC50 (read off the curve)” value in [5] is around 4 nM.
